Target: T1, AfArsR C102S (Acidithiobacillus ferrooxidans, UniProt B7J952 B7J952:1-118, C102S)
T1 sequence: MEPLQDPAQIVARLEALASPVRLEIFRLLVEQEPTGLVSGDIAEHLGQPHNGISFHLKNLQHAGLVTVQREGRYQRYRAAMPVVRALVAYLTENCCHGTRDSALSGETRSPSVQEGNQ
Assay: FP; anisotropy; complex little affected by As(III) up to 40 uM, dissociated by MAs(III), Rox(III), PhAs(III); same buffer
Conditions: tags: C-terminal His tag (pBADarsR, E. coli Top10); chain copies: 2 (homodimer, inferred); label: 5'-6-FAM

B1: ars operator/promoter 30-mer (arsO) (dsDNA)
DNA 1: ATCCACGAATATTTCTTGCAGTATTGACAA
DNA 2: TTGTCAATACTGCAAGAAATATTCGTGGAT
- binding result: binds

— patent publication US20180355396, “Biosensors for Organic and Inorganic Arsenic” (THE FLORIDA INTERNATIONAL UNIVERSITY BOARD OF TRUSTEES, published 2018)
